Laboratory results: the supplement of paper PMC9170038

Test system: MS2 coat protein
Assay: apparent KD of MS2 coat protein; higher = weaker reporter binding
Conditions: Eterna round: R107
Procedure, shortened: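 Designed RNA switches were made by on-chip transcription from Illumina sequencing clusters and then titrated with SNAP-549-labelled MS2 coat protein. Twofold steps ran from 0.7 or 1.5 nM to 3 µM, each lasting 0.8–1.5 h early and 10–20 min late, in 100 mM Tris-HCl pH 7.5, 80 mM KCl, 4 mM MgCl2, without or with constant ligand. Apparent KD is the per-design median of normalised cluster binding-curve fits.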

[1] = input ligand: theophylline 20 uM
[2] = input ligand: theophylline 2 mM
[3] = input ligand: tryptophan 2.4 mM

| Sequence | apparent KD of MS2 coat protein (input ligand: arginine 13.2 mM) [µM] | apparent KD of MS2 coat protein [1] [µM] | apparent KD of MS2 coat protein [2] [µM] | apparent KD of MS2 coat protein (input ligand: none) [µM] | apparent KD of MS2 coat protein [3] [µM] |
| --- | --- | --- | --- | --- | --- |
| GGAAUAAUGGCGGCCGCCACUAACUCAUAUACAUCAUGUACAUGAGGAUCACCCAUGUAGGUGUAUAGGACCGGGCCAUAAUUCC [39MS split4] | 0.0201 | 0.0273 | 0.0251 |  |  |
| GGACUAACCAGAAGGAGCGACACGCAGAAACUGCAAAUUCCUCUGCACGAGGAUCACCCGUGUCAGGUAGGUCGCUGGUUAGUCG | 0.0299 | 0.0355 | 0.0366 | 0.0274 | 0.0269 |
| GGACUAACCAGAAGGAGCGGCGCGCAGAAACUGCUAAUUCCUCCGCACGAGGAUCACCCGUGUCAGGUAGGUCGCUGGUUAGUCG [ArgBX 28] | 0.0103 | 0.0124 | 0.0134 |  | 0.011 |
| GGAGUAGGAAACUAUUCCAAUCCUCGUGAACGAGGACCGGUACGGCCGCCACUCGAUAAAUAAAUACAUGAGGAUCACCCAUGUA [Ex Tryptophan A 22] | 0.02 | 0.0289 | 0.0341 |  |  |
| GGAUAGGACACGGCCGCCACUACCUAGGAUACUAGCAACAUUUGGGUACGUGAGGAUCACCCACGUAGGACCGGGUGUCCUAUCG | 0.0152 | 0.0191 | 0.0145 |  | 0.0204 |
| GGAUAGGACACGGCCGCCACUAGCUAGGAUACUAGCAACAUUUCCUCAUAUGAGGAUCACCCAUAUAGGACCGGGUGUCCUAUCG | 0.215 | 0.389 | 0.471 | 0.376 | 1.14 |
| GGAUAGGACACGGCCGCCACUGCCUAGGAUACUAGCAACAUUUGGGUACAAGAGGAUCACCCUUGUAGGACCGGGUGUCCUAUCG | 0.0271 | 0.0386 | 0.0293 | 0.025 | 0.026 |
| GGAUAGGACAGAAGGAGCGUGAGAUGCAUACCUUCAUUCCUCACAUGAGGAUCACCCAUGUCACAGGUAGGUCGCUGUCCUAUCG [#20 Exclusion - Arginine B] | 0.0648 | 0.108 | 0.0965 | 0.0935 | 0.0907 |
| GGCGACAUGAGGAUCACCCAUGUGACACCUCGAGGACCGGUACGGCCGCCACUCGUAACCUGCACUAUAGCUACCACGAUUAGCC [theeternabot_sameState_MS2_Trp_A_44] | 0.0843 | 0.238 | 0.233 |  |  |
| GGCGUCGGGCGAAGGAGCGUGAAGACAUGAGGAUCACCCAUGUAGAGGCCCGAACAGGGUUCGCAGGUAGGUCGCGCGCGGUGCC [#1 Same State - Arginine B Attempt #6 (HarryS)] | 0.0115 | 0.0247 | 0.0214 | 0.0136 | 0.0156 |
| GGGAGGUAGGCGGCCGCCACUGAUUUUCAUAUAUAUAUAACAUGAGGAUCACCCAUGUAGAUAUGCAGGACCGGGCCUGUUUUUU [aaaK] | 0.0188 | 0.0305 | 0.0263 |  |  |
| GGGCAAGAGGGAAGGAGCGUCAGCUGAGUCACAUGAGGAUCACCCAUGUCGCACAUAGUGUGACAGGUAGGUCGCCCUCUACCCU [Esceinan] | 0.0578 | 0.167 | 0.107 | 0.124 | 0.0893 |
| GGGCGCGUGGACCGGCGUGCUCCGCUCCGUCGAGGACCGGUACGGCCGCCACUCGACAUGAGGAUCACCCAUGUGCGAGCUCGCG [#1 Exclusion - Tryptophan A Attempt #15 (HarryS)] | 0.0162 | 0.0398 | 0.0321 | 0.0193 | 0.191 |
| GGGUACAUCGCGGCCGCCACUCAUGUAAAUACAUGAGGAUCACCCAUGUCGAUGGAGACAUCGGAGAGGACCGGGCGAUGUACCG | 0.224 | 0.352 | 0.54 | 0.398 | 0.264 |
| GGUACAUGAGGAUCACCCAUGUAUGCGAGCCGAGGACCGGUACGGCCGCCACUCGCUUAACAUGAGGAUCACCCAUGUUUCUCGG [SSTA DOUBLE!!! :-D #15] | 0.0909 | 0.157 | 0.12 | 0.0949 | 0.108 |
| GGUACAUGAGGAUCACCCAUGUGUCAUGAUACCAGACAUGAAAAUGUCCCUUGGCAGCAUGCCAGACGGCCGCGUUUAGCGGCCG [Oresin] | 0.0186 | 0.0197 | 0.0196 | 0.0128 | 0.0163 |
| GGUCUCUGGAGCGAUACCAGCUUAAAUGUACUGGCCAGGUACAUGAGGAUCACCCAUGUAAGCCCUUGGCAGCGCUCCAGAGACC [#1 Exclusion - Theophylline B Attempt #13 (HarryS)] | 0.0123 | 0.0138 | 0.0392 | 0.0139 | 0.0135 |
